Laboratory results from the supplement of paper PMC10567573.
± gives the standard deviation.

Test: protein stability index of a GFP-peptide fusion (GPS, HEK-293T) (PSI 1-6); higher = more stable
[1] = treatment: DMSO, c terminus: a fixed tail appended
[2] = treatment: MLN4924 1 uM, 8 h, c terminus: a fixed tail appended
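Note: 24-mer peptide tiles fused after GFP, lentivirally expressed, FACS-sorted into six equal bins by GFP/DsRed ratio, decoded by Illumina sequencing, PSI is the read-weighted mean bin number.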

Sequence	protein stability index [1]	protein stability index [2]	protein stability index (treatment: DMSO, c terminus: native)	protein stability index (treatment: MLN4924 1 uM, 8 h, c terminus: native)
DSYSSSRSDLYSSGRDRVGRQERG [RBMX]	4.72 ± 0.059	4.84 ± 0.22	–	–
DSYSSTQHVPEELDLSSSSQMSPL [ATF6]	5.29 ± 0.12	5.28 ± 0.073	–	–
DTGVAFELRDSSAYHVPNRTLASG [DNAAF3]	3.87 ± 0.18	3.94 ± 0.054	–	–
DVDLTIHGRHIDCPATWGPSVEQA [FOXJ1]	3.95 ± 0.16	3.94 ± 0.3	–	–
DVFERDWYSPYAKTLQPTKQPNCS [PLD5]	3.49 ± 0.54	3.24 ± 0.15	–	–
DVRLLPRRLPLAFRDATSAPLRKL [DYRK1B]	3.17 ± 0.27	3.02 ± 0.15	–	–
DVVFEIQGTTVPAHRAILVARCEV [RHOBTB3]	2.69 ± 0.85	2.51 ± 0.44	–	–
DYMKEVGVGFATRKVAGMAKPNMI [FABP4]	3.13 ± 0.48	3.06 ± 0.64	–	–
EADINGLRRVLDELTLSKTDLEMQ [KRT13]	4.32 ± 0.079	4.26 ± 0.3	–	–
EAEALAGTGLVLDEQLNEFHCLWD [HDAC6]	4.29 ± 0.061	4.15 ± 0.45	–	–
EAECEKSSATTYFWYREALDISDS [SLC6A17]	3.94 ± 0.36	3.83 ± 0.29	–	–
EAEDQEEKEDAEKENIEKDEDDVD [SRPK2]	5.66 ± 0.32	5.79 ± 0.2	–	–
EAMYHCCWNTSYCSIKCQQEHWHA [ZMYND11]	2.3 ± 0.45	2.65 ± 0.43	–	–
EATKEVHTQAENAEFMRNFQKGQV [HMOX1]	5.04 ± 0.17	5.21 ± 0.23	–	–
ECFETLRGDERILSILRHQNLLKE [CHGA]	2.9 ± 0.24	2.85 ± 0.34	–	–
EDERWTNNFREYNLHRVAAHELGH [MMP1]	3.73 ± 0.19	3.62 ± 0.2	–	–
EDFSLPAYMDRRDHPLPEVAHVKH [COX4I1]	4.32 ± 0.28	4.59 ± 0.18	–	–
EDSIPLRGLSQNLFSNSDHQRDGT [SASS6]	4.94 ± 0.15	4.99 ± 0.2	–	–
EDSKELRALRKMVSNMSGPSGEEE [CBY2]	5.15 ± 0.21	5.25 ± 0.13	–	–
EEDDDDDDDDNLPQLKKESELPFV [ANKRD40]	5.32 ± 0.1	5.42 ± 0.18	–	–
EEENAQLRGALQQGEAFQRALESE [PBXIP1]	5.43 ± 0.32	5.39 ± 0.49	–	–
EEMRELRRKIRELQLRYSLRILIG [BEX5]	2.76 ± 0.75	2.5 ± 0.51	–	–

Sequence	protein stability index [1]	protein stability index [2]	protein stability index (treatment: DMSO, c terminus: native)	protein stability index (treatment: MLN4924 1 uM, 8 h, c terminus: native)
EENMERIGEEVRQLMEKLREKQLS [BEX1]	4.57 ± 0.38	4.35 ± 0.5	–	–
EEQESVDTGEEEEGGDESDLSSES [EHMT1]	5.57 ± 0.19	5.64 ± 0.16	–	–
EESEKAMQERVQRLEAARLSLEEE [LRRC45]	5.48 ± 0.2	5.57 ± 0.091	–	–
EEVVSTLDAVQVLSGVSQLLPKSR [FCHO1]	4.3 ± 0.28	4.43 ± 0.24	–	–
EFFRESVNRFGTYPALASKNGKKW [ACSBG2]	2.87 ± 0.45	3.2 ± 0.28	–	–
EFLTNELSRKLMQLQHEKAELEQH [CCDC6]	2.98 ± 0.16	3.05 ± 0.3	–	–
EFQMFPKSRLSSVSVTYCSVSQDF [ETS2]	2.23 ± 0.25	2.15 ± 0.21	–	–
EGGEVRFNGKGKKIRKPRTIYCSL [DLX1]	2.92 ± 0.1	3.39 ± 0.26	–	–
EGSLEWDILEVKRLLDHQDNILSL [WDR41]	2.42 ± 0.2	2.53 ± 0.21	–	–
EGVATYAAAVLFRMSEDKPQDYKK [CTNNB1]	3.45 ± 0.17	3.46 ± 0.21	–	–
EHICVNNGNSYICKCSEGFVLAED [MATN2]	4.61 ± 0.15	4.26 ± 0.53	–	–
EIELQAQHNLRDSLENTLTESEAH [KRT34]	5.3 ± 0.27	5.18 ± 0.16	–	–
EIIELLILSGARVNAKDNMWLTPL [ANKRD44]	3.16 ± 0.2	3.3 ± 0.72	–	–
EITTLRQVLSAKERHLVEIKQKLG [TPD52L1]	2.97 ± 0.57	3.16 ± 0.12	–	–
EKNFFPEYNYDWWEKKPFSEDVNW [CHGB]	2.78 ± 0.54	2.76 ± 0.47	–	–
EKPRVPAFACQVAGCCQVFDALDD [ZNF511]	3.94 ± 0.22	3.99 ± 0.092	–	–
EKQADFLDKQMSRDEHRARAMKIP [NFE2L1]	4.46 ± 0.16	4.58 ± 0.12	–	–
EKRERALEEVERAILEMKWKVRAE [ZBED2]	3.77 ± 0.27	3.74 ± 0.53	–	–
EKRGCPRTALEYCKLILSLEPDED [TCF25]	3.37 ± 0.17	3.42 ± 0.097	–	–
ELDILPIHPPSGNSDLDPDAQNPM [BTBD10]	5.45 ± 0.16	5.38 ± 0.16	–	–
ELFIEISRRIPSTDANLPSGGKGF [RAB22A]	2.36 ± 0.33	2.14 ± 0.34	–	–
ELIGDYSKAFLLQTVDGKHQDLKY [CDC25B]	2.41 ± 0.18	2.51 ± 0.29	–	–

Sequence	protein stability index [1]	protein stability index [2]	protein stability index (treatment: DMSO, c terminus: native)	protein stability index (treatment: MLN4924 1 uM, 8 h, c terminus: native)
ELLVYIVFLVDICLLTYGMTSSSA [PKD2L1]	3.19 ± 0.45	2.93 ± 0.67	–	–
ELLWKLQTGDPTSPIKLSPTSPVY [MTUS2]	2.3 ± 0.32	2.36 ± 0.16	–	–
ELSNILNLSYKQVKTWFQNQRMKS [NANOGP8]	2.63 ± 0.49	2.38 ± 0.43	–	–
ELSTLRNLFKQLPEPLLASSGHC [CEBPB]	–	–	2.12 ± 0.44	2.38 ± 0.14
ELVVRFFACPSKTDFFKNIMNFID [KCNA1]	2.32 ± 0.58	2.33 ± 0.52	–	–
ELVYADDYIMDEDQSKLAGLLDLN [ESRRG]	3.48 ± 0.21	3.68 ± 0.21	–	–
EMLTGQERVALANRKRECGNAHYQ [FKBP8]	3.71 ± 0.23	3.86 ± 0.27	–	–
ENMVTVGFFSCMGTLCIGAAAFSQ [KCNK9]	3.39 ± 0.5	2.91 ± 0.16	–	–
EPAPGSALSPAGVCGGAQRPGHLP [CDC25B]	4.6 ± 0.15	4.49 ± 0.21	–	–
EPATPEEGEPATQRQDPAAAQEGE [GAGE1]	5.62 ± 0.13	5.61 ± 0.19	–	–
EPGTPSSSPDDKLLTSPRAINNLV [KLHL14]	4.87 ± 0.16	4.91 ± 0.34	–	–
EPQSEPVRVLDMVAKLESECLKRQ [FBXO34]	4.88 ± 0.28	4.9 ± 0.054	–	–
EQFHEAASKMESTIKPRRVEPVCS [CHCHD6]	4.42 ± 0.31	4.61 ± 0.14	–	–
ERAAAQARRELQAEREALQARLRD [ZBED3]	5.27 ± 0.21	5.33 ± 0.22	–	–
EREAEKEQKRLERLQRKLVEPKHC [SDE2]	4.7 ± 0.17	4.82 ± 0.085	–	–
EREEEDDALDSEGRDSEGPAEGEG [KCNG1]	5.55 ± 0.29	5.74 ± 0.12	–	–
ERLASANLRVLVDCILRDTSEDLR [TEKT4]	2.21 ± 0.48	2.05 ± 0.15	–	–
ERLKANDNLKFSQEYESIDPGQQF [PTPRD]	4.21 ± 0.12	4.22 ± 0.16	–	–
ERPWIKRMIFKLFSQETVMKFVPR [APMAP]	2.71 ± 0.75	2.48 ± 1.1	–	–
ESDPSDPNKDMVVQLIDDFKISGM [SRPK2]	4.82 ± 0.3	4.8 ± 0.26	–	–
ESKVREATNDDPWGPSGQLMGEIA [CLINT1]	4.7 ± 0.12	4.78 ± 0.096	–	–
